Data taken from US20260022175A1 (Chugai, published 2026).
Changes are numbered by the printed parent chain. One block for each binder: values may come before it.

Experiments:
[1] = target: T1, human FcγRIIIa V allotype extracellular domain with C-terminal His-tag (human, UniProt P08637 17-208); assay: SPR Biacore T200, Ab captured via Fab-lambda, pH 7.4, 25C;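 also: antibodies captured on a streptavidin chip carrying biotinylated anti-Fab-lambda, with each FcγR injected as analyte in phosphate buffer. KD fitted by 1:1 Langmuir or steady-state model depending on receptor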
T1 construct: extracellular domain; also called hFcγR IIIa V
T1 sequence (P08637 17-208 F176V): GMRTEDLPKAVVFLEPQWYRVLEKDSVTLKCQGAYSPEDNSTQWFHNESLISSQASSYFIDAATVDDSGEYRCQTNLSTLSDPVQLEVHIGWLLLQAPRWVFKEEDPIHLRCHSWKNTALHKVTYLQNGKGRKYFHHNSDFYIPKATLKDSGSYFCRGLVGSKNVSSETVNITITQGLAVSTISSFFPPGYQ
Protocol: (§1) The interaction between the generated antibodies and human FcγRs was analyzed by the following method using Biacore T200. 50 mM Na-Phosphate, 150 mM NaCl, 0.05% Tween20 (pH 7.4) was used as the running buffer, and the assay was performed at 25° C. For the sensor chips, Series S SA (GE Healthcare) chips onto which CaptureSelect Human Fab-lambda Kinetics Biotin Conjugate (Thermo Fisher Scientific) was immobilized were used. The antibodies of interest were captured onto these chips and each FcγR diluted in the running buffer was allowed to interact with them. Chips were regenerated with 10 mM Glycine-HCl (pH 1.5) and 25 mM NaOH, and assay was performed by repeatedly capturing antibodies. The dissociation constants KD (mol/L) for FcγRs of each antibody were calculated using Biacore T200 Evaluation Software 2.0, using the 1:1 Langmuir binding model for FcγRIa and FcγRIIIa and the steady state affinity model for FcγRIIa. For FcγRIIb, the binding amount of FcγRIIb per unit amount of antibody was calculated by correcting the binding amount of FcγRIIb obtained from the sensorgram obtained by the measurement with the amount of antibody captured onto the chip surface.

[2] = target: T2, human FcγRIIa H allotype extracellular domain with C-terminal His-tag (human, UniProt P12318 34-217); assay: as above
T2 construct: extracellular domain; also called hFcγR IIa H
T2 sequence (looked up): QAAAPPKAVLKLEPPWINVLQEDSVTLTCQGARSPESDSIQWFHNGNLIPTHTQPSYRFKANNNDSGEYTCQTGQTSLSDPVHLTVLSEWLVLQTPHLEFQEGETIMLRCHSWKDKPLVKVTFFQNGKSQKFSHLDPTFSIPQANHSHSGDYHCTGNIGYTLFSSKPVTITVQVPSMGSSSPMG
Protocol: as §1

[3] = target: T3, human FcγRIIIa F allotype extracellular domain with C-terminal His-tag (human, UniProt P08637 17-208); assay: as above
T3 construct: extracellular domain; also called hFcγR IIIa F
T3 sequence (P08637 17-208): as the sequence (P08637 17-208 F176V) above, with V160F counted along it
Protocol: as §1

[4] = target: T4, human FcγRIIa R allotype extracellular domain with C-terminal His-tag (human, UniProt P12318 34-217); assay: as above
T4 construct: extracellular domain; also called hFcγR IIa R
T4 sequence (looked up): T2 sequence (looked up) with H134R
Protocol: as §1

[5] = target: T5, human FcγRIa extracellular domain with C-terminal His-tag (human, UniProt P12314 16-292); assay: as above
T5 construct: extracellular domain; also called hFcγR Ia; hFcγRIa
T5 sequence (P12314 16-292): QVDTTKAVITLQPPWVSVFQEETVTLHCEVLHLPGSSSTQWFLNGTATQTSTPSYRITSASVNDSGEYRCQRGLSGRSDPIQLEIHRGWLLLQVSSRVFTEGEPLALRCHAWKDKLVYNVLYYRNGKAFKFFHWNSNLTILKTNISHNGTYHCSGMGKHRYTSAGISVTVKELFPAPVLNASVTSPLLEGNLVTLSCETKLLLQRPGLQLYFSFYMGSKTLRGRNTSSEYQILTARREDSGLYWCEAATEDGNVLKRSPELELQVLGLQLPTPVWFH
Protocol: as §1

[6] = target: T6, human FcγRIIb extracellular domain with C-terminal His-tag (human, UniProt P31994 43-217); assay: SPR; FcγRIIb at 1000 nM, bound amount per unit captured Ab
T6 construct: extracellular domain; also called hFcγR IIb
T6 sequence (looked up): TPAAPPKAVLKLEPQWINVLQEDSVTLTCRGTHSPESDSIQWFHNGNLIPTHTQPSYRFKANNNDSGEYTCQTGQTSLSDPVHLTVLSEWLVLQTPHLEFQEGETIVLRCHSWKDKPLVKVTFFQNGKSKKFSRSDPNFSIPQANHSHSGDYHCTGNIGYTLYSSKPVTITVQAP
Protocol: as §1

[7] = target: T6, human FcγRIIb extracellular domain with …; assay: SPR; binding amount divided by that of 04H1637-G1m/04L1610-lam1
[8] = target: T1, human FcγRIIIa V allotype extracellular …; assay: SPR; KD of 04H1637-G1m/04L1610-lam1 divided by KD of variant;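 also: biacore T200 SPR at 25 °C, antibodies captured on anti-Fab-lambda SA chip with receptor as analyte, running buffer pH 7.4 for FcγRs and pH 6.0 for FcRn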
Protocol: as §1
(§2) The interaction between the generated antibodies and human FcRn was analyzed by the following method using Biacore T200. 50 mM Na-Phosphate, 150 mM NaCl, 0.05% Tween20 (pH 6.0) was used as the running buffer, and the assay was performed at 25° C. For the sensor chip, Series S SA (GE Healthcare) chips onto which CaptureSelect Human Fab-lambda Kinetics Biotin Conjugate (Thermo Fisher Scientific) was immobilized were used. The antibodies of interest were captured onto these chips and FcRn diluted in the running buffer was allowed to interact with them. Chips were regenerated with 10 mM Glycine-HCl (pH 1.5) and 25 mM NaOH, and assay was performed by repeatedly capturing antibodies. The dissociation constant for FcRn of each antibody was calculated using the steady state model, using Biacore T200 Evaluation Software 2.0.

[9] = target: T2, human FcγRIIa H allotype extracellular …; assay: as above
Protocol: as §1, §2

[10] = target: T3, human FcγRIIIa F allotype extracellular …; assay: as above
Protocol: as §1, §2

[11] = target: T4, human FcγRIIa R allotype extracellular …; assay: as above
Protocol: as §1, §2

[12] = target: T5, human FcγRIa extracellular domain with …; assay: as above
Protocol: as §1, §2

[13] = target: T7, human FcγRIIb extracellular domain (human, UniProt P31994 43-217); assay: SPR Biacore 8K+, antibody captured, FcγR as analyte, steady state affinity model
T7 construct: extracellular domain; also called hFcγR IIb
T7 sequence (looked up): T6 sequence (looked up)

[14] = target: T8, human FcγRIIa H extracellular domain (human, UniProt P12318 34-217); assay: SPR Biacore 8K+; KD for FcγRIIb divided by KD for this FcγR;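 also: antibodies captured on an anti-human Fab kappa SA chip with soluble human FcγR ectodomains flowed over, FcγRIIb KD from steady-state fit, other FcγR KD from Langmuir model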
T8 construct: extracellular domain; also called hFcγR IIa H
T8 sequence (looked up): T2 sequence (looked up)

[15] = target: T9, human FcγRIIIa V extracellular domain (human, UniProt P08637 17-208); assay: as above
T9 construct: extracellular domain; also called hFcγR IIIa V
T9 sequence (P08637 17-208 F176V limits assumed): as the sequence (P08637 17-208 F176V) above

[16] = target: T10, human FcγRIIIa F extracellular domain (human, UniProt P08637 17-208); assay: as above
T10 construct: extracellular domain; also called hFcγR IIIa F
T10 sequence (P08637 17-208): as the sequence (P08637 17-208 F176V) above, with V160F counted along it

[17] = target: T11, human FcγRIIa R extracellular domain (human, UniProt P12318 34-217); assay: as above
T11 construct: extracellular domain; also called hFcγR IIa R
T11 sequence (looked up): T2 sequence (looked up) with H134R

[18] = target: T12, human FcγRIa extracellular domain (human, UniProt P12314 16-292); assay: SPR Biacore 8K+; KD of G1d divided by KD of this antibody;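 also: antibodies captured on an anti-Fab-kappa streptavidin chip, soluble FcγR ectodomains flowed over, KD by steady-state fit for FcγRIIb and Langmuir kinetic model for the other receptors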
T12 construct: extracellular domain; also called hFcγR Ia; hFcγRIa
T12 sequence (P12314 16-292): as the sequence (P12314 16-292) above

[19] = target: T8, human FcγRIIa H extracellular domain; assay: as above
[20] = target: T9, human FcγRIIIa V extracellular domain; assay: as above
[21] = target: T10, human FcγRIIIa F extracellular domain; assay: as above
[22] = target: T11, human FcγRIIa R extracellular domain; assay: as above
[23] = target: T7, human FcγRIIb extracellular domain; assay: as above
[24] = target: T12, human FcγRIa extracellular domain; assay: SPR Biacore 8K+, antibody captured, FcγR as analyte, 1:1 Langmuir model;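 also: antibodies captured on a streptavidin chip through a biotinylated anti-human Fab kappa reagent, with FcγR extracellular domains injected in pH 7.4 phosphate buffer at 25 °C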
[25] = target: T8, human FcγRIIa H extracellular domain; assay: as above
[26] = target: T9, human FcγRIIIa V extracellular domain; assay: as above
[27] = target: T10, human FcγRIIIa F extracellular domain; assay: as above
[28] = target: T11, human FcγRIIa R extracellular domain; assay: as above

Kd [1]: 5.2 nM
Kd [2]: 70 nM
Kd [3]: 17 nM
Kd [4]: 220 nM
Kd [5]: 0.15 nM
Binding amount [6]: 0.013
Relative binding amount [7]: 1.6
Relative value to KD between G1m and hFcγRs [8]: 45.8
Relative value to KD between G1m and hFcγRs [9]: 20.9
Relative value to KD between G1m and hFcγRs [10]: 79.5
Relative value to KD between G1m and hFcγRs [11]: 9.2
Relative value to KD between G1m and hFcγRs [12]: 0.3
B1: 04H1637-Kn462/04L1610-lam1//04H1637-Hl441/04L1610-lam1 (antibody, human IgG1, lambda)
heavy 1: QVQLVESGGGLVKPGGSLRLSCAASGFTFSSKTMNWVRQAPGKGLEWVSSISTQSHYIYYAESVRGRFTISRDNAKNSLYLQMNSLRAEDTAVYYCARYGKREDMLWVFDYWGQGTLVTVSSASTKGPSVFPLAPSSKSTSGGTAALGCLVKDYFPEPVTVSWNSGALTSGVHTFPAVLQSSGLYSLSSVVTVPSSSLGTQTYICNVNHKPSNTKVDKKVEPKSCDKTHTCPPCPAPEFQWGPMVFLFPPKPKDVLMISRTPEVTCVVVDVSDEEPEVKFNWYVDGVEVHNAKTKPREEQYNATYRVVSVLPVLHQDWLNGKEYKCKVSNDALPAPIEKTISKAKGQPREPQVCTLPPSRDELTKNQVSLWCLVKGFYPSDIAVEWESNGQPENNYKTTPPVLDSDGSFFLYSKLTVDKSRWQQGNVFSCSVMHEALHNHYTQKSLSLSP
heavy 2: QVQLVESGGGLVKPGGSLRLSCAASGFTFSSKTMNWVRQAPGKGLEWVSSISTQSHYIYYAESVRGRFTISRDNAKNSLYLQMNSLRAEDTAVYYCARYGKREDMLWVFDYWGQGTLVTVSSASTKGPSVFPLAPSSKSTSGGTAALGCLVKDYFPEPVTVSWNSGALTSGVHTFPAVLQSSGLYSLSSVVTVPSSSLGTQTYICNVNHKPSNTKVDKKVEPKSCDKTHTCPPCPAPELLAGPSVFLFPPKPKDVLMISRTPEVTCVVVDVSHEEPEVKFNWYVDGVEVHNAKTKPREEQYNATYRVVSVLPVLHQDWLNGKEYKCKVSNDALPAPIEETISKAKGQPREPQVYTLPPSRCELTKNQVSLSCAVKGFYPSDIAVEWESNGQPENNYKTTPPVLDSDGSFFLVSKLTVDKSRWQQGNVFSCSVMHEALHNHYTQKSLSLSP
light: QSALTQPPSASGSPGQSVTISCEGPSTGVGDYNWVHWYQQHPGKAPKLMIYFTSKKPSGVPDRFSGSKSGNTASLTVSGLQAEDEADYYCQTYAAPLGPMFGGGTKLTVLGQPKAAPSVTLFPPSSEELQANKATLVCLISDFYPGAVTVAWKADSSPVKAGVETTTPSKQSNNKYAASSYLSLTPEQWKSHRSYSCQVTHEGSTVEKTVAPTECS
notes: Heterodimerized antibody; also called 04H1637-Kn462/04L1610-lam1//04H1637-H1441/04L1610-lam1

Kd [13]: 2590 nM
A/I ratio (KD for FcγRIIb divided by KD for each FcγR) [14]: 2.2
A/I ratio (KD for FcγRIIb divided by KD for each FcγR) [15]: 266
A/I ratio (KD for FcγRIIb divided by KD for each FcγR) [16]: 98.7
A/I ratio (KD for FcγRIIb divided by KD for each FcγR) [17]: 2.8
Relative value to KD between G1d and hFcgRs [18]: 54.3
Relative value to KD between G1d and hFcgRs [19]: 1
Relative value to KD between G1d and hFcgRs [20]: 36.8
Relative value to KD between G1d and hFcgRs [21]: 113
Relative value to KD between G1d and hFcgRs [22]: 1.8
Relative value to KD between G1d and hFcgRs [23]: 3.9
Kd [24]: 0.00166 nM
Kd [25]: 1180 nM
Kd [26]: 9.73 nM
Kd [27]: 26.2 nM
Kd [28]: 935 nM
B2: H240-Kn032/L73-k0//H240-Hl032/L73-k0 (antibody)
heavy 1: QDQLVQSGAEVKKPGASVKVSCKASGFNIKDTYIQWVRQAPGQGLEWMGRIDPLRKQTKYREKFEGRVTITADTSTNTAYMELSSLRSEDTAVYYCVRSGREFDYWGQGTLVTVSSASTKGPSVFPLAPSSKSTSGGTAALGCLVKDYFPEPVTVSWNSGALTSGVHTFPAVLQSSGLYSLSSVVTVPSSSLGTQTYICNVNHKPSNTKVDKKVEPKSCDKTHTCPPCPAPELLGGPDVFLFPPKPKDTLMISRTPEVTCVVVDVSHEDPEVKFNWYVDGVEVHNAKTKPREEQYNSTYRVVSVLTVLHQDWLNGKEYKCKVSNKALPLPEEKTISKAKGQPREPQVCTLPPSRDELTKNQVSLWCLVKGFYPSDIAVEWESNGQPENNYKTTPPVLDSDGSFFLYSKLTVDKSRWQQGNVFSCSVMHEALHNHYTQKSLSLSP
heavy 2: B2 heavy 1 with C348Y, D355C, W365S, L367A, Y406V
light: DIQMTQSPSSLSASVGDRVTITCRASQDIHKYIAWYQQKPGQAPRLLIQYTSTLQPGVPSRFSGSGSGTDYTFTISSLQPEDIATYYCLQYEQLRTFGGGTKVEIKRTVAAPSVFIFPPSDEQLKSGTASVVCLLNNFYPREAKVQWKVDNALQSGNSQESVTEQDSKDSTYSLSSTLTLSKADYEKHKVYACEVTHQGLSSPVTKSFNRGEC
notes: also called EGL-SDALIE; SDALIE
